Molecular target: T1, LigB9-11 (Leptospira interrogans serovar …)
T1 construct: pET-20b(+) adds an initiating methionine and a C-terminal LEH6 tail; not shown: His6 (LEH6 tail), C-terminal, kept
Assay: ELISA; host protein (1 µg per well) immobilised in microtiter wells, blocked with 20 mg/mL BSA; recombinant LigB in 20 mg/mL BSA in PBS pH 7.2, 1 h at 37°C; bound LigB detected by its polyhistidine tag; apparent Kd from the LigB concentration at half-maximal binding
Conditions: both partners purified

B1: fibrinogen fragment D (complex)
chain 1: VSEDLRSRIEVLKRKVIEKVQHIQLLQKNVRAQLVDMKRLEVDIDIKIRSCRGSCSRALAREVDLKDYEDQQKQLEQVIAKDLLPSR
chain 2: DNENVVNEYSSELEKHQLYIDETVNSNIPTNLRVLRSILENLRSKIQKLESDVSAQMEYCRTPCTVSCNIPVVSGKECEEIIRKGGETSEMYLIQPDSSVKPYRVYCDMNTENGGWTVIQNRQDGSVDFGRKWDPYKQGFGNVATNTDGKNYCGLPGEYWLGNDKISQLTRMGPTELLIEMEDWKGDKVKAHYGGFTVQNEANKYQISVNKYRGTAGNALMDGASQLMGENRTMTIHNGMFFSTYDRDNDGWLTSDPRKQCSKEDGGGWWYNRCHAANPNGRYYWGGQYTWDMAKHGTDDGVVWMNWKGSWYSMRKMSMKIRPFFPQQ
chain 3: KMLEEIMKYEASILTHDSSIRYLQEIYNSNNQKIVNLKEKVAQLEAQCQEPCKDTVQIHDITGKDCQDIANKGAKQSGLYFIKPLKANQQFLVYCEIDGSGNGWTVFQKRLDGSVDFKKNWIQYKEGFGHLSPTGTTEFWLGNEKIHLISTQSAIPYALRVELEDWNGRTSTADYAMFKVGPEADKYRLTYAYFAGGDAGDAFDGFDFGDDPSDKFFTSHNGMQFSTWDNDNDKFEGNCAEQDGSGWWMNKCHAGHLNGVYYQGGTYSKASTPNGYDNGIIWATWKTRWYSMKKTTMKIIPFNRLTIGEGQQHHLGGAK
B1 showed a Kd of 26 nM.
